Source: article PMC11445502, “CDK phosphorylation of Sfr1 downregulates Rad51 function in late-meiotic homolog invasions” (The EMBO Journal, 2024)
One block for each molecule: values may come before it.

What was measured:
Rad51 [1] = biological target: Rad51 (UniProt P36601); test: focus co-localisation on nuclear spreads; conditions: reference: EGFP-Sfr1 wild type; sites T73,T89,S109,S116,S147,T152,S165
Rad51 [2] = biological target: Rad51 (UniProt P36601); test: GST pulldown from mixed bacterial lysates; conditions: reference: wild-type GST-Sfr1; sites T73,T89,S109,S116,S147,T152,S165
GST-Sfr1-7A = biological target: T1, GST-Sfr1-7A (S. pombe, UniProt Q9USV1 1-299, Thr73 to Ala | Thr89 to Ala | Ser109 to Ala | Ser116 to Ala | Ser147 to Ala | …); test: pull-down; GST-Sfr1 lysates (~2 mg) and Rad51 extract (75 ug) from E. coli mixed, Glutathione Sepharose 4B, 1 h at 4 °C; pulldown buffer 25 mM HEPES-KOH pH 7.5, 150 mM NaCl, 3.5 mM MgCl2, 0.5 mM DTT, 0.05 mg/ml BSA, 10% glycerol, 0.05% Igepal; western blot anti-GST and anti-Rad51; Rad51/GST ratio quantified; conditions: partners not purified
T1 construct: Sfr1, S. pombe, all seven putative CDK sites changed to alanine; pGEX-4T-1 should put GST at the N-terminus (surmised); Partly degraded as m1; also called pGEX-4T-1 sfr1-7A (CMC102); source: E. coli BL21 DE3, in cleared lysate
T1 sequence (looked up): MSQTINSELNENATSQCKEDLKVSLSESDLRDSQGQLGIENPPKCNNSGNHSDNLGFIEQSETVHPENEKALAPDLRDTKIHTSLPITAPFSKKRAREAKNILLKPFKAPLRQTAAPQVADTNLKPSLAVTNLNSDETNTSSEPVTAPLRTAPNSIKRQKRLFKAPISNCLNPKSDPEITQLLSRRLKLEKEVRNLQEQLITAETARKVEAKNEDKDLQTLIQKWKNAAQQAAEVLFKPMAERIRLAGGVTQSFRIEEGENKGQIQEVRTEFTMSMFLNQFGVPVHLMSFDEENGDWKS

GST-Sfr1-WI = biological target: T2, GST-Sfr1-WI (S. pombe, UniProt Q9USV1 1-299, Lys93 to Ala | Lys94 to Ala | Arg95 to Ala | Lys157 to Ala | Arg158 to Ala | …); test: as above; conditions: partners not purified
T2 construct: Sfr1, S. pombe, seven arginine and lysine residues of Site 1 and Site 2 changed to alanine; pGEX-4T-1 should put GST at the N-terminus (surmised); Partly degraded as m1; also called pGEX-4T-1 sfr1-WI (CMC98); source: E. coli BL21 DE3, in cleared lysate
T2 sequence (looked up): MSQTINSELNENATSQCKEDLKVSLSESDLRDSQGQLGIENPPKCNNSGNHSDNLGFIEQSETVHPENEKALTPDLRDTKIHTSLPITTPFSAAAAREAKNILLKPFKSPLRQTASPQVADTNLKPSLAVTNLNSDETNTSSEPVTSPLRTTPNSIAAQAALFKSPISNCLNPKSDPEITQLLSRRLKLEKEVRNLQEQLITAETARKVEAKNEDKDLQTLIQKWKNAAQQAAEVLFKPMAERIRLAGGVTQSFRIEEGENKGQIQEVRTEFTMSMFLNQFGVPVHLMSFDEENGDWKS

other: % of Rad51 foci co-localised with EGFP-Sfr1 foci (Rad51 [1]): same; reference 78
Molecule: Sfr1 (from UniProt Q9USV1) EGFP-Sfr1-7A

percent of reference (Rad51 [2]): 81%
Molecule: Sfr1 (from UniProt Q9USV1) GST-Sfr1-7A

Second part, the molecule before the results:

Molecule: Sfr1 (from UniProt Q9USV1) EGFP-Sfr1-7D
other: % of Rad51 foci co-localised with EGFP-Sfr1 foci (Rad51 [1]): weaker; reference 78

B1: Rad51 (untagged) (natural protein, S. pombe, UniProt P36601 1-365, looked up)
chain: MADTEVEMQVSAADTNNNENGQAQSNYEYDVNVQDEEDEAAAGPMPLQMLEGNGITASDIKKIHEAGYYTVESIAYTPKRQLLLIKGISEAKADKLLGEASKLVPMGFTTATEYHIRRSELITITTGSKQLDTLLQGGVETGSITELFGEFRTGKSQICHTLAVTCQLPIDMGGGEGKCLYIDTEGTFRPVRLLAVADRYGLNGEEVLDNVAYARAYNADHQLELLQQAANMMSESRFSLLVVDSCTALYRTDFSGRGELSARQMHLARFMRTLQRLADEFGIAVVITNQVVAQVDGISFNPDPKKPIGGNILAHSSTTRLSLRKGRGEQRICKIYDSPCLPESEAIFAINSDGVGDPKEIIAPV
notes: Rad51 recombinase, S. pombe, untagged, in pET-11d; Plasmid ordered from GeneUniversal or GeneCust; also called pET-11d rad51 (CMC99); recombinase Rad51; source: E. coli BL21 DE3, in cleared lysate
efficiency of binding compared to control GST-Sfr1 (Rad51/GST ratio) (GST-Sfr1-7A): 81%
efficiency of binding compared to control GST-Sfr1 (Rad51/GST ratio) (GST-Sfr1-WI): 17%
